Legend:
Experiment in all cases: cell-based or functional assay
[1] = target: cynomolgous monkey GLP1R (cynomolgous monkey)
[2] = target: mouse GLP1R (mouse) (UniProt O35659)
[3] = target: dog GLP1R (dog)
[4] = target: T1, human GIPR (human) (UniProt P48546)
T1 sequence (looked up): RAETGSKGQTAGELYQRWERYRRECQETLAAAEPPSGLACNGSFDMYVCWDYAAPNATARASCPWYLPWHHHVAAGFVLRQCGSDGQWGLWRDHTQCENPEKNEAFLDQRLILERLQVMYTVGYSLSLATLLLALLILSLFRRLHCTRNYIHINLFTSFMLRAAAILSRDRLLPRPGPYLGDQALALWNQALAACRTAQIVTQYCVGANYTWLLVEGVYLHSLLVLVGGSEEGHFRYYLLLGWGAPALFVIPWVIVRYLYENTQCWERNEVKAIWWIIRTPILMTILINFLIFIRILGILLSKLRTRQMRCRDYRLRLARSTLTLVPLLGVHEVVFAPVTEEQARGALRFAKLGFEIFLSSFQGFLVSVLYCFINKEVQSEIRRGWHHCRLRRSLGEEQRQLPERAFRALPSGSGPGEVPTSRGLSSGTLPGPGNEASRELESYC

[5] = target: dog GIPR (dog)
[6] = target: T2, mouse GIPR (mouse) (UniProt Q0P543)
T2 sequence (looked up): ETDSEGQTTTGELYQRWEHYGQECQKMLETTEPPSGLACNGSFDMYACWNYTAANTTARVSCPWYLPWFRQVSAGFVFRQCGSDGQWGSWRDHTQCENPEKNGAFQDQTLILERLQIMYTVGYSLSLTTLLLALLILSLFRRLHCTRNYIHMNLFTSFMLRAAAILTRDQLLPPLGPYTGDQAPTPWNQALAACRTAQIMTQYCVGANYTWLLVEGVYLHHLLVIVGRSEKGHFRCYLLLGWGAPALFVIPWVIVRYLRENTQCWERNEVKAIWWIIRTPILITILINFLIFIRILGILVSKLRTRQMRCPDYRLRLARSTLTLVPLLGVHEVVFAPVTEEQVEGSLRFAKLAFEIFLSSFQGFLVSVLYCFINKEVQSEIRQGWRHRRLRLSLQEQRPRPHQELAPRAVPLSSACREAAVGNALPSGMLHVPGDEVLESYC

[7] = target: cynomolgous monkey GIPR (cynomolgous monkey)

Sequence of mouse GLP1R (mouse) (O35659 22-463 limits assumed): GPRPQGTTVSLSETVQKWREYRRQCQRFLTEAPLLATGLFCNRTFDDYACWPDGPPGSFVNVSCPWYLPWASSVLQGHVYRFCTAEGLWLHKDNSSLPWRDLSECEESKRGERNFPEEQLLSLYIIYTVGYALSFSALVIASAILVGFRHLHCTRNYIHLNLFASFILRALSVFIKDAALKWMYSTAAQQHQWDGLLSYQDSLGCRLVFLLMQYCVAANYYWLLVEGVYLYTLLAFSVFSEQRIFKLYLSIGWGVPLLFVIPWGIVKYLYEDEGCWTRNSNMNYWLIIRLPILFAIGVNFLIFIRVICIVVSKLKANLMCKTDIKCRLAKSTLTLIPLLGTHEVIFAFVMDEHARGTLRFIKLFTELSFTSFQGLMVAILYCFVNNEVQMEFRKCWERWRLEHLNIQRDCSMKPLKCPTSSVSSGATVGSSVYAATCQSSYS
Sequence of dog GLP1R (dog) (chain, as listed by the source): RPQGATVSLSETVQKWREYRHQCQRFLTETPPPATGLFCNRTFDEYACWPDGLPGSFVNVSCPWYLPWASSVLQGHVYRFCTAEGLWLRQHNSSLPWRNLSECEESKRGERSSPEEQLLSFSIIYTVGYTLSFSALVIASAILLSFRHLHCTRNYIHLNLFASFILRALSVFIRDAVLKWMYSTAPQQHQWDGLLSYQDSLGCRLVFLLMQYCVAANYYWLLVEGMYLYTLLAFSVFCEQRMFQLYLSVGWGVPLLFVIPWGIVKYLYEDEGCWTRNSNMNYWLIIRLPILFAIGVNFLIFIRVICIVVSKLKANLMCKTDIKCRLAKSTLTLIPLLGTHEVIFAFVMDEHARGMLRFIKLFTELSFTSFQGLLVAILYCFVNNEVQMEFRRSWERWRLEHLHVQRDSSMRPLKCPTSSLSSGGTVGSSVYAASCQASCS

In Vitro Potency GLP1R EC50 [nM], Cyno [1] [nM] | In Vitro Potency GLP1R EC50 [nM], Dog [3] [nM] | In Vitro Potency GIPR EC50 [nM], 10% FBS [4] [nM] | In Vitro Potency GIPR EC50 [nM], Mouse [6] [nM] | Substance | In Vitro Potency GLP1R EC50 [nM], Mouse [2] [nM] | In Vitro Potency GIPR EC50 [nM], No Serum [4] [nM] | In Vitro Potency GIPR EC50 [nM], Dog [5] [nM] | In Vitro Potency GIPR EC50 [nM], Cyno [7] [nM]
0.13 | 0.67 |  |  | Semaglutide (peptide) | 0.1 |  |  | 
 |  | 0.01 | 0.34 | wild-type human GIP (hGIP) (from UniProt P09681 52-93) (ligand) |  | 0.05 | 0.7 | 0.69
 |  |  |  | Tirzepatide (peptide) | 0.16 | 0.006 | 0.1 | 0.08

— US20240148884A1
